Values joined by “and” are separate entries in the source; they are usually repeats but may differ in a detail not shown here. Equal values may be shown once.
Biological target: NaV1.7 (Homo sapiens, UniProt Q15858)
Assay type: cell-based
Experimental: To determine the voltage dependence of slow inactivation, HEK293-NaV1.7 cells were held at −120 mV and peak current determined by an initial 20 ms pulse to 0 mV. Following a series of 15,000 ms step pulses ranging from −120 to 0 mV in 20 mV increments, a subsequent 50 ms test pulse to 0 mV, preceded by a 50 ms step to −120 mV to remove fast inactivation, was used to determine the remaining current. The proportion of slow-inactivated channels was determined by normalizing peak current from the test pulse to the initial depolarization. A Boltzmann equation was fit to the current data, plotted as a function of voltage, to determine the V50 as well as the minimum proportion of activatable channels.

NaV1.7, sequence (Q15858 whole entry): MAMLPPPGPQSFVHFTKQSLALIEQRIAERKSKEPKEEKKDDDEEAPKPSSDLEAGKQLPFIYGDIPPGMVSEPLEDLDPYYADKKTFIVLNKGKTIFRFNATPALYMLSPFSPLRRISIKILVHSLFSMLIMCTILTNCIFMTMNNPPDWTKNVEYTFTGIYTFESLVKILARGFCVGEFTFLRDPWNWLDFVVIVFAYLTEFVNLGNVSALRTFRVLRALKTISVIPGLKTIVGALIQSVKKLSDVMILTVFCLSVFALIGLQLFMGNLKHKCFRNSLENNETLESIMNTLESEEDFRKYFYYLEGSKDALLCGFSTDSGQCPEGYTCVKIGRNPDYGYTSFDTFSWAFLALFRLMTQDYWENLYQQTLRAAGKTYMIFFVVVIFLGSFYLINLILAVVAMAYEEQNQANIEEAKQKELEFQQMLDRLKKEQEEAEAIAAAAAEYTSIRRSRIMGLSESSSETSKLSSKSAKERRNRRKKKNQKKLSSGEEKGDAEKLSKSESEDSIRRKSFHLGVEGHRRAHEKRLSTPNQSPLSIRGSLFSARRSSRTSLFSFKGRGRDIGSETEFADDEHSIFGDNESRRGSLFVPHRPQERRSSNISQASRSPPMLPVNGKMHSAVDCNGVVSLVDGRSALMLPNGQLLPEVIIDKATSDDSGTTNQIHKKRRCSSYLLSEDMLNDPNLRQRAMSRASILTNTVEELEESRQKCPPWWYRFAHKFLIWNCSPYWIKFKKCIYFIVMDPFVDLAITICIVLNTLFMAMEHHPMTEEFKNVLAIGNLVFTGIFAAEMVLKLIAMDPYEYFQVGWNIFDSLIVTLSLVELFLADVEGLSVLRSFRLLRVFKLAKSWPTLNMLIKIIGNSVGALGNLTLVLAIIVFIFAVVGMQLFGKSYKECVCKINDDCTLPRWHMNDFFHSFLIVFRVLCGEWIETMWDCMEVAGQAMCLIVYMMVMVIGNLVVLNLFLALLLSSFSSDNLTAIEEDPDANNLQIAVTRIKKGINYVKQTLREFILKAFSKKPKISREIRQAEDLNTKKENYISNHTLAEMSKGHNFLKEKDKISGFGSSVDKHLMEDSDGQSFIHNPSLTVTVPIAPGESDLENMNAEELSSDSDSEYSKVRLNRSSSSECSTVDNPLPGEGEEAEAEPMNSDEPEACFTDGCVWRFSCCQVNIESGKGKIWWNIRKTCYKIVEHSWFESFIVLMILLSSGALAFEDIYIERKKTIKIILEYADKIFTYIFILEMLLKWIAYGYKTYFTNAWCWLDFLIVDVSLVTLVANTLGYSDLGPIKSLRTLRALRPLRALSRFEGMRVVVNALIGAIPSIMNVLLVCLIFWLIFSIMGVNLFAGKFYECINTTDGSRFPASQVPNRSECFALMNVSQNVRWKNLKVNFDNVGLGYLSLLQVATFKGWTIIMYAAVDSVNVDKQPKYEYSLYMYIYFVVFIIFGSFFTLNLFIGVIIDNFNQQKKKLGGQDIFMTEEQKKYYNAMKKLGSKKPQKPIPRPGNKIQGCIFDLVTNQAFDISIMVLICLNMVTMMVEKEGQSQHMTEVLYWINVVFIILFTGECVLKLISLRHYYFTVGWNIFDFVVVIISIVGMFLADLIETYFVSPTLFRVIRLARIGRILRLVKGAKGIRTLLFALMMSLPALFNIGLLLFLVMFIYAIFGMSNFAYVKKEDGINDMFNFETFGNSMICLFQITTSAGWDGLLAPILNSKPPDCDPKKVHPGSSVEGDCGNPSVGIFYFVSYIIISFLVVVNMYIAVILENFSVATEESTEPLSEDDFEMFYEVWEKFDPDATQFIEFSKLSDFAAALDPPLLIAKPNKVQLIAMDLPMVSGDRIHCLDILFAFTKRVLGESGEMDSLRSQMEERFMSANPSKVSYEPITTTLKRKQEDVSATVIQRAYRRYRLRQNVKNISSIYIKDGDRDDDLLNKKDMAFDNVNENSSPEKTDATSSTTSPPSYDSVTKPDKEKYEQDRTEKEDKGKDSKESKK
NaV1.7, sequence (Q07699 19-218, further chain): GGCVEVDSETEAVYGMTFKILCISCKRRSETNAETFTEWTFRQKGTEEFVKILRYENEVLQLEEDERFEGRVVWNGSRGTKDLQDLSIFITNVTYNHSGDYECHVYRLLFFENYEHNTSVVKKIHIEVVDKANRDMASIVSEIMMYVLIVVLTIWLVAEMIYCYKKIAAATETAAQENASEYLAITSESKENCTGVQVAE

B1: TMEM233 (protein)
chain: MSQYAPSPDFKRALDSSPEANTEDDKTEEDVPMPKNYLWLTIVSCFCPAYPINIVALVFSIMSLNSYNDGDYEGARRLGRNAKWVAIASIIIGLLIIGISCAVHFTRNA
Bottom (Boltzmann sigmoidal, best-fit value): 0.2301 | Slope (Boltzmann sigmoidal, best-fit value): -7.153 | Top (Boltzmann sigmoidal, best-fit value): 1.031 | V50 (Boltzmann sigmoidal, best-fit value): -65.56 mV | V50, mean (Fig. 6g, NaV1.7/β1/TMEM233, mean of n = 13, NaV1.7/β1 (Mock) mean -59.66, n = 11): -65.18 | V50, individual values (Fig. 6g, NaV1.7/β1/TMEM233, single replicates): -60.38 and -71.19 and -68.09 and -76.79 and -71.43 and -68.52 and -59.19 and -60.32 and -58.12 and -54.99 and -67.1 and -64.07 and -67.16 | V50, difference between means (TMEM233 - Mock) ± SEM (Fig. 6g, unpaired t test P = 0.0108, 95% CI -9.637 to -1.412): -5.524 ± 1.983

Source: paper PMC10147923, “Pain-causing stinging nettle toxins target TMEM233 to modulate NaV1.7 function” (Nature Communications, 2023)
